According to paper PMC4576209, “Biochemical characterization of FIKK8 – A unique protein kinase from the malaria parasite Plasmodium falciparum and other apicomplexans” (Molecular and Biochemical Parasitology, 2015):

Substrate: Nc1ncnc2c1ncn2[C@@H]1O[C@H](COP(=O)(O)OP(=O)(O)OP(=O)(O)O)[C@@H](O)[C@H]1O
Assay: LDH-PK coupled kinase assay
Type: biochemical, Cryptosporidium parvum
Conditions: peptide substrate; MgCl2 stated only for autophosphorylation

B1: CpFIKKd (Cryptosporidium parvum Iowa II) (protein)
chain: GKNDKVCYTWKEAKQLISKLKSSTKLYKFNGVPFSDWAHEKIPTLGASPTSCRVQEMFKSRIYLEKNNEVYATLFIKKIPRNIWSKQWEMHEIWDGDYVTDGEDFVMEAAALAFLQNHSVGIAPRLYAILEHCEDNCNDINSNKESKIQYRNIANRNACDYLLSKDTTHIILVSEHYGEDLLDYLDKCEKKNRNLTDKEKKELQYKLALALNNLHSKGLCHLDFTPENILIGPNGINICDFAKSTPIITKNPRHTHYSRKSPKNHLSENFNSNNTSFNFINPPPEAYCEFESCEPTVGKGAYMPPECWKIFWRLEENKIQFPLEELMDIDTYNRRSNYSYFNEFSRIHNKSPIKCQDRSMFYFNTRIADIYMLGIIMFWIWSDGGIWKYSDTRQDHRYQNLVFSDINFDVFRECRGWNKQLKSLLKKMLEPDPNKRITMSEILSDPWWKCPLDE
notes: kinase domain plus N-terminal extension (38 or more residues); E. coli
- Km: 48.0 ± 0.9 µM
- kcat: 1.3 ± 0.0083 s⁻¹
- kcat/Km: 26700 M⁻¹ s⁻¹
